Target: ILF3 dsRBD;hnRNPC dsRBD (Homo sapiens;Homo sapiens, UniProt Q12906;P07910 398-590;16-57, |)
Assay: EMSA; both proteins pooled; simultaneous binding; 1 uM labelled RNA, 3 uM protein, 10 ul, on ice 45 min; 6% PAGE in 0.5x TBE (gel pre-run at 4 C); binding buffer, salt and pH not stated (proteins dialyzed in 25 mM Tris-HCl pH 8.0, 150 mM NaCl; final elution from cation exchange/heparin up to 1 M NaCl, then SEC)
Conditions: protein: recombinant;recombinant, tags: N-terminal GST (pGood6p), removed with TEV;10xHis (pSUMOH10), label: 5' DY781

B1: edited RNA (ssRNA)
RNA: AGUGGCUUAUGCCUGUGAUCCCAACAC
modifications: A-to-I editing site represented by G as printed (A/G); inosine not stated
B1: binds.
